The assay has as its target recombinant human PKM2 (rhPKM2) (human, UniProt P14618 1-531). Kind of assay: SPR.

Drawing on paper PMC12123718 (Respiratory Research, 2025), this text covers Kd for 1 molecule.

recombinant human PKM2 (rhPKM2), sequence (P14618 whole entry): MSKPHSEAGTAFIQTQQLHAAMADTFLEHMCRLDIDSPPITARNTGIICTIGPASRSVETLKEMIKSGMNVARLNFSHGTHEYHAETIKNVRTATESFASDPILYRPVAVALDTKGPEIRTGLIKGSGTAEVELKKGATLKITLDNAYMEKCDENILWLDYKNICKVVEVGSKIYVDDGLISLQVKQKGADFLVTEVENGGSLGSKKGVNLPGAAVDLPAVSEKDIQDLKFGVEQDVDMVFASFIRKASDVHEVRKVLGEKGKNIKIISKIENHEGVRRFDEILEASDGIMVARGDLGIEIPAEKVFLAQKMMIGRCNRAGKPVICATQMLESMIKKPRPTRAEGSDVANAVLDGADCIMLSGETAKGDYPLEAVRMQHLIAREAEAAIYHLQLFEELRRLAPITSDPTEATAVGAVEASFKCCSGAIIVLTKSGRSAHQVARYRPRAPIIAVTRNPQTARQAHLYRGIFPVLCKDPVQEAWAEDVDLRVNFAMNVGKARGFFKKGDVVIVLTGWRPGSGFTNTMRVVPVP

B1: recombinant hPFN2 (rhPFN2) (natural protein, human, UniProt P35080 1-140, looked up)
chain: MAGWQSYVDNLMCDGCCQEAAIVGYCDAKYVWAATAGGVFQSITPIEIDMIVGKDREGFFTNGLTLGAKKCSVIRDSLYVDGDCTMDIRTKSQGGEPTYNVAVGRAGRVLVFVMGKEGVHGGGLNKKAYSMAKYLRDSGF
Turning to B1, the Kd was determined as 50.6 nM.
